Sequences and labels used below:
B1: Proline-rich nuclear receptor coactivator 2 (Homo sapiens), Q9NPJ4-1 (parent)
chain: MGGGERYNIPAPQSRNVSKNQQQLNRQKTKEQNSQMKIVHKKKERGHGYNSSAAAWQAMQNGGKNKNFPNNQSWNSSLSGPRLLFKSQANQNYAGAKFSEPPSPSVLPKPPSHWVPVSFNPSDKEIMTFQLKTLLKVQV
partner: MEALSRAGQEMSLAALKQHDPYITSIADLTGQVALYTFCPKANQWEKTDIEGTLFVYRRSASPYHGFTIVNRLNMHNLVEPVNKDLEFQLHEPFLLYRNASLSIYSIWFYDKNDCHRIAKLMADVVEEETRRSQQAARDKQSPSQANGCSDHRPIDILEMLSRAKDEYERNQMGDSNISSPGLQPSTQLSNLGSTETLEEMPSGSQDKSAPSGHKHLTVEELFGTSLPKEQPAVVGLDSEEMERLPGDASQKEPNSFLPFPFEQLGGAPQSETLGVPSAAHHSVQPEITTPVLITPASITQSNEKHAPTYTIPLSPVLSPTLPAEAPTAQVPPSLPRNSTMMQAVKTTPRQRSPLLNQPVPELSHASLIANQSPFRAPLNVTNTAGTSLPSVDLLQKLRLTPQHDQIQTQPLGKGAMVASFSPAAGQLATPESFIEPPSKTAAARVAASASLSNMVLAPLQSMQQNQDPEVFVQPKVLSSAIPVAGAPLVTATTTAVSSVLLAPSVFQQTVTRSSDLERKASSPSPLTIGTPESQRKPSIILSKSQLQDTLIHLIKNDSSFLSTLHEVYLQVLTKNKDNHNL
B2: mRNA-decapping enzyme 1A (Homo sapiens), Q9NPI6 (parent)
chain: B1 partner

From IntAct's records for PubMed 23085078 come the findings set out here.

The variants in one assay derive from B1. Conditions: with dcp1a_human DCP1A.
Regarding K109A, the “effect of a mutation on the interaction” value was “disrupting interaction strength”.
As for W114A, the “effect of a mutation on the interaction” value is “disrupting interaction strength”.
Consider P108A, for which the “effect of a mutation on the interaction” value is recorded as “decreasing interaction strength”.

A further assay covers variants of B2. The conditions noted are these: with PNRC2, Q9NPJ4-1.
As for R98A, the “effect of a mutation on the interaction” value is listed as “decreasing interaction strength”.
On the same count and under the same terms, next, W45A: “decreasing interaction strength”; L96A: “disrupting interaction strength”.
Consider F94A, for which the “effect of a mutation on the interaction” value was “decreasing interaction strength”.
Still for that read-out and setting: with Y36A the entry was “decreasing interaction strength”.
